From patent US20220010008A1
Changes are numbered by the printed parent chain. “And” between values parts separate entries of the source, which are not always exact repeats. Identical values can stand only once. Values belong to the binder of their own block, whether it stands above or below them.

How the values were obtained:
[1] = target: recombinant human IL-5 protein (human) (UniProt P05113); assay: SPR, human IL-5 immobilized on CM5 chip, chimeric antibody as analyte, 1:1 global fit
[2] = target: recombinant human IL-5 protein (human) (UniProt P05113); assay: cell-based or functional assay
[3] = target: recombinant human IL-5 protein (human) (UniProt P05113); assay: SPR, human IL-5 immobilized on chip, 1:1 fit
[4] = target: recombinant human IL-5 protein (human) (UniProt P05113); assay: FACS, biotin-IL-5 bound to CHOK1 hIL-5Ra/CSF2RB cells with Ab 0.0004 nM
[5] = target: recombinant human IL-5 protein (human) (UniProt P05113); assay: FACS, biotin-IL-5 bound to CHOK1 hIL-5Ra/CSF2RB cells with Ab 0.0021 nM
[6] = target: recombinant human IL-5 protein (human) (UniProt P05113); assay: FACS, biotin-IL-5 bound to CHOK1 hIL-5Ra/CSF2RB cells with Ab 0.0107 nM
[7] = target: recombinant human IL-5 protein (human) (UniProt P05113); assay: FACS, biotin-IL-5 bound to CHOK1 hIL-5Ra/CSF2RB cells with Ab 0.0533 nM
[8] = target: recombinant human IL-5 protein (human) (UniProt P05113); assay: FACS, biotin-IL-5 bound to CHOK1 hIL-5Ra/CSF2RB cells with Ab 0.2667 nM
[9] = target: recombinant human IL-5 protein (human) (UniProt P05113); assay: FACS, biotin-IL-5 bound to CHOK1 hIL-5Ra/CSF2RB cells with Ab 1.3333 nM
[10] = target: recombinant human IL-5 protein (human) (UniProt P05113); assay: FACS, biotin-IL-5 bound to CHOK1 hIL-5Ra/CSF2RB cells with Ab 6.6667 nM
[11] = target: recombinant human IL-5 protein (human) (UniProt P05113); assay: FACS, biotin-IL-5 bound to CHOK1 hIL-5Ra/CSF2RB cells with Ab 33.3333 nM
[12] = target: recombinant human IL-5 protein with His tag (human) (UniProt P05113); assay: ELISA, biotin-human IL-5 on streptavidin; antibody 0.0002 nM
[13] = target: recombinant human IL-5 protein with His tag (human) (UniProt P05113); assay: ELISA, biotin-human IL-5 on streptavidin; antibody 0.0009 nM
[14] = target: recombinant human IL-5 protein with His tag (human) (UniProt P05113); assay: ELISA, biotin-human IL-5 on streptavidin; antibody 0.0043 nM
[15] = target: recombinant human IL-5 protein with His tag (human) (UniProt P05113); assay: ELISA, biotin-human IL-5 on streptavidin; antibody 0.0213 nM
[16] = target: recombinant human IL-5 protein with His tag (human) (UniProt P05113); assay: ELISA, biotin-human IL-5 on streptavidin; antibody 0.1067 nM
[17] = target: recombinant human IL-5 protein with His tag (human) (UniProt P05113); assay: ELISA, biotin-human IL-5 on streptavidin; antibody 0.5333 nM
[18] = target: recombinant human IL-5 protein with His tag (human) (UniProt P05113); assay: ELISA, biotin-human IL-5 on streptavidin; antibody 2.6667 nM
[19] = target: recombinant human IL-5 protein with His tag (human) (UniProt P05113); assay: ELISA, biotin-human IL-5 on streptavidin; antibody 13.3333 nM

Kd [1]: < 120 pM
koff [1]: < 1e-05 s⁻¹
kon [1]: 81900 M⁻¹ s⁻¹
B1: 69F2F3 mouse-human chimeric antibody (antibody, human IgG4, V domains shown)
VH: QVQLKQSGPGLVQPSQSLSITCTVSGFSLSNYGVHWVRQSPGKGLEWLGVIWSGGSTDYNAAFKSRLSITKDNSKSQVVFRMNSLQTDDTATYYCARNKDFLDYWGQGTKFTVSS
VL: DIVMTQSPSSLTVTAGEKVTMTCKSSQGLLNSGNQKNYLTWYQQKPGQPPKLLIYWASTRESGVPDRFTGSGSGTDFTLTISSVQAEDLAVYYCQNDYHFPLTFGAGTKLELK

RLU, CTLL-2 cell proliferation stimulated by IL-5, Ab conc. 0.000170667 nM [2]: 56800 RLU and 61000 RLU
RLU, CTLL-2 cell proliferation stimulated by IL-5, Ab conc. 0.000853333 nM [2]: 56400 RLU and 57300 RLU
RLU, CTLL-2 cell proliferation stimulated by IL-5, Ab conc. 0.004266667 nM [2]: 50600 RLU and 55900 RLU
RLU, CTLL-2 cell proliferation stimulated by IL-5, Ab conc. 0.02133333 nM [2]: 49000 RLU and 45200 RLU
RLU, CTLL-2 cell proliferation stimulated by IL-5, Ab conc. 0.1066667 nM [2]: 26500 RLU and 26300 RLU
RLU, CTLL-2 cell proliferation stimulated by IL-5, Ab conc. 0.5333334 nM [2]: 16700 RLU and 15200 RLU
RLU, CTLL-2 cell proliferation stimulated by IL-5, Ab conc. 2.666667 nM [2]: 13700 RLU and 14400 RLU
RLU, CTLL-2 cell proliferation stimulated by IL-5, Ab conc. 13.33333 nM [2]: 12900 RLU and 13500 RLU
RLU, CTLL-2 cell proliferation stimulated by IL-5, Ab conc. 66.66666 nM [2]: 10700 RLU and 11300 RLU
RLU, CTLL-2 cell proliferation stimulated by IL-5, Ab conc. 3.41333E-05 nM [2]: 58900 RLU and 59800 RLU
RLU, TF-1 cell proliferation stimulated by IL-5, Ab conc. 0.00001 nM [2]: 111000 RLU and 112000 RLU
RLU, TF-1 cell proliferation stimulated by IL-5, Ab conc. 0.00003 nM [2]: 111000 RLU and 113000 RLU
RLU, TF-1 cell proliferation stimulated by IL-5, Ab conc. 0.00017 nM [2]: 116000 RLU and 112000 RLU
RLU, TF-1 cell proliferation stimulated by IL-5, Ab conc. 0.00085 nM [2]: 105000 RLU
RLU, TF-1 cell proliferation stimulated by IL-5, Ab conc. 0.00427 nM [2]: 90300 RLU and 86300 RLU
RLU, TF-1 cell proliferation stimulated by IL-5, Ab conc. 0.02133 nM [2]: 72200 RLU and 55900 RLU
RLU, TF-1 cell proliferation stimulated by IL-5, Ab conc. 0.10667 nM [2]: 42300 RLU and 43600 RLU
RLU, TF-1 cell proliferation stimulated by IL-5, Ab conc. 0.53333 nM [2]: 36200 RLU and 39400 RLU
RLU, TF-1 cell proliferation stimulated by IL-5, Ab conc. 2.66667 nM [2]: 39900 RLU and 38100 RLU
RLU, TF-1 cell proliferation stimulated by IL-5, Ab conc. 13.33333 nM [2]: 35500 RLU and 37500 RLU
Kd [3]: < 50.4 pM
koff [3]: < 1e-05 s⁻¹
kon [3]: 198000 M⁻¹ s⁻¹
Fluorescence intensity [4]: 96
Fluorescence intensity [5]: 93
Fluorescence intensity [6]: 88
Fluorescence intensity [7]: 90
Fluorescence intensity [8]: 74
Fluorescence intensity [9]: 55
Fluorescence intensity [10]: 36
Fluorescence intensity [11]: 31
B2: 147D7H2 (murine hybridoma lead antibody) (antibody, V domains shown)
VH: EVQLQQSGAELVKPGASVKLSCTASGFNIKDYFIHWVKQRTEQGLEWIGRIDTEDGETKYAPKFQGKATITIDTSSNTAYLYFSSLTSEDTAMYYCARYGNYVAMDYWGQGTSVTVSS
VL: QIVLTQSPALMSASPGEKVTMTCSASSSVSYMFWYQQKPSSSPKPWIYLTSKLASGVPARFSGSGSGTSYSLTISSVEAEDAATYYCQQWNSNPYTFGGGTKLEIK

RLU, CTLL-2 cell proliferation stimulated by IL-5, Ab conc. 0.000170667 nM [2]: 58000 RLU and 54700 RLU
RLU, CTLL-2 cell proliferation stimulated by IL-5, Ab conc. 0.000853333 nM [2]: 56500 RLU and 56300 RLU
RLU, CTLL-2 cell proliferation stimulated by IL-5, Ab conc. 0.004266667 nM [2]: 53600 RLU and 50900 RLU
RLU, CTLL-2 cell proliferation stimulated by IL-5, Ab conc. 0.02133333 nM [2]: 39300 RLU and 38800 RLU
RLU, CTLL-2 cell proliferation stimulated by IL-5, Ab conc. 0.1066667 nM [2]: 14000 RLU and 12200 RLU
RLU, CTLL-2 cell proliferation stimulated by IL-5, Ab conc. 0.5333334 nM [2]: 12500 RLU and 11700 RLU
RLU, CTLL-2 cell proliferation stimulated by IL-5, Ab conc. 2.666667 nM [2]: 8720 RLU and 8840 RLU
RLU, CTLL-2 cell proliferation stimulated by IL-5, Ab conc. 13.33333 nM [2]: 7410 RLU and 6600 RLU
RLU, CTLL-2 cell proliferation stimulated by IL-5, Ab conc. 66.66666 nM [2]: 6500 RLU and 5240 RLU
RLU, CTLL-2 cell proliferation stimulated by IL-5, Ab conc. 3.41333E-05 nM [2]: 60600 RLU and 48600 RLU
RLU, TF-1 cell proliferation stimulated by IL-5, Ab conc. 0.00001 nM [2]: 104000 RLU and 105000 RLU
RLU, TF-1 cell proliferation stimulated by IL-5, Ab conc. 0.00003 nM [2]: 95400 RLU and 98300 RLU
RLU, TF-1 cell proliferation stimulated by IL-5, Ab conc. 0.00017 nM [2]: 86500 RLU and 91300 RLU
RLU, TF-1 cell proliferation stimulated by IL-5, Ab conc. 0.00085 nM [2]: 72700 RLU and 70700 RLU
RLU, TF-1 cell proliferation stimulated by IL-5, Ab conc. 0.00427 nM [2]: 51100 RLU and 54700 RLU
RLU, TF-1 cell proliferation stimulated by IL-5, Ab conc. 0.02133 nM [2]: 49900 RLU and 47200 RLU
RLU, TF-1 cell proliferation stimulated by IL-5, Ab conc. 0.10667 nM [2]: 40400 RLU
RLU, TF-1 cell proliferation stimulated by IL-5, Ab conc. 0.53333 nM [2]: 35100 RLU and 37700 RLU
RLU, TF-1 cell proliferation stimulated by IL-5, Ab conc. 2.66667 nM [2]: 37900 RLU and 34300 RLU
RLU, TF-1 cell proliferation stimulated by IL-5, Ab conc. 13.33333 nM [2]: 35300 RLU and 36600 RLU
Kd [3]: 18.6 pM
koff [3]: 9.04e-06 s⁻¹
kon [3]: 486000 M⁻¹ s⁻¹
Fluorescence intensity [4]: 93
Fluorescence intensity [5]: 86
Fluorescence intensity [6]: 87
Fluorescence intensity [7]: 84
Fluorescence intensity [8]: 69
Fluorescence intensity [9]: 46
Fluorescence intensity [10]: 34
Fluorescence intensity [11]: 30
B3: 151G3B11 (murine hybridoma lead antibody) (antibody, V domains shown)
VH: EVHLQQSGAELVKPGASVKLSCTASGFNIKDYYMHWVKQRTEQGLEWIGRIDPEDGETKYAPKFQGQATITADTSSNTANLQLSSLTSEDTAVYYCARYGNFPDYWGPGTTLTVSS
VL: B2 VL with F33Y, S40R, V77M

OD450 nm [12]: 0.103 and 0.094
OD450 nm [13]: 0.185 and 0.186
OD450 nm [14]: 0.625 and 0.609
OD450 nm [15]: 2.02 and 2.11
OD450 nm [16]: 3.5 and 3.4
OD450 nm [17]: 4.03 and 3.75
OD450 nm [18]: 4.07 and 3.8
OD450 nm [19]: 4.07 and 4.04
B4: 151G3B11 (murine hybridoma antibody) (antibody, V domains shown)
VH: B3 VH
VL: B2 VL with F33Y, S40R, V77M
